How the values were obtained:
[1] = biological target: T1, Human MAGEB2 (Melanoma-associated antigen B2) (human, UniProt O15479 1-319); assay: IHC on FFPE NCI-H1395 cells (endogenous MAGEB2)
T1 construct: Intracellular antigen detected by IHC in FFPE material: CHO cells transfected with human MAGEB2 (mCherry vector with Myc/DDK tags, or ORF without tags)
T1 sequence: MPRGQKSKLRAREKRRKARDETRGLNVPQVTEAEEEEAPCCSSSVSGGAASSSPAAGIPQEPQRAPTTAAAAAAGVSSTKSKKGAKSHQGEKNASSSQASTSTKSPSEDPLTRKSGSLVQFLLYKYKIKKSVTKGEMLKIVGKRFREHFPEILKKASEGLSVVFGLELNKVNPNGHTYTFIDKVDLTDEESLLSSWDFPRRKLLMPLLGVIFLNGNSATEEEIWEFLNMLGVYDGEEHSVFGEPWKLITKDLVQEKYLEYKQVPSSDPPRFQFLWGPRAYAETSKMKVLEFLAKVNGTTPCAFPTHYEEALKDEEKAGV
Experimental: (§1) FFPE samples were sectioned at 4 μm and mounted on positive charged glass slides. After mounting, paraffin sections were air-dried at room temperature. FFPE TMA samples were received as freshly sectioned and mounted on glass slides. The fully automated IHC assay was performed on a Discovery Ultra Stainer (Ventana Medical Systems, Tucson, AZ) using Ventana Anti-Rabbit HQ (cat #760-4815), Ventana Anti-HQ HRP (cat #760-4820), and Ventana Antibody Diluent with Casein (cat #760-219) (Ventana Medical Systems, Tucson, AZ). The slides were baked on the Discovery Ultra Stainer at 60° C. for 8 minutes, de-paraffinized with Ventana Discovery wash (cat #950-510) for 3 cycles (8 minutes each) at 69° C., and underwent cell conditioning (target retrieval) at 95° C. for 16 minutes (for cell arrays) or 32 minutes (tissues or TMAs) in CC1 buffer (cat #950-500). Following this, slides were incubated with Background Sniper (cat #BS966M, Biocare Medical, Pacheco, CA) in a Ventana Option Prep kit (cat #771-751) for 28 minutes, incubated with CM inhibitor (a part of the Ventana DAB kit cat #760-159) for 12 minutes, and incubated for 1 h at RT with MAGE-B2 antibody diluted with Ventana diluent with Casein in a Ventana Prep kit (cat #770-001) (working concentration at 0.1 μg/ml for cell pellet, or 1-5 ug/ml for tissues) or with a matched concentration of isotype control Rabbit IgG1 antibody. Following this, slides were incubated with the Ventana Anti-Rabbit HQ (cat #760-4815) for 28 minutes at RT, Ventana Anti-HQ HRP (cat #760-4820) for 28 minutes at RT, and signals detected with Ventana DAB chromogen kit (cat #760-159) for 5 minutes at RT. Slides were counterstained with Ventana Hematoxylin II (cat #5266726001) for 8 minutes and Ventana Bluing reagent (cat #526676900) for 4 minutes. Slides were coverslipped and digitized using an Aperio AT2 scanner (Leica Biosystems Inc, Buffalo Grove, IL).

human MAGEB18 = biological target: T2, human MAGEB18 (human, UniProt Q96M61 1-343); assay: IHC, FFPE CHO cells transfected with human MAGEB18
T2 construct: whole, on cells; FFPE cell pellets; also called MAGE-18
T2 sequence (looked up): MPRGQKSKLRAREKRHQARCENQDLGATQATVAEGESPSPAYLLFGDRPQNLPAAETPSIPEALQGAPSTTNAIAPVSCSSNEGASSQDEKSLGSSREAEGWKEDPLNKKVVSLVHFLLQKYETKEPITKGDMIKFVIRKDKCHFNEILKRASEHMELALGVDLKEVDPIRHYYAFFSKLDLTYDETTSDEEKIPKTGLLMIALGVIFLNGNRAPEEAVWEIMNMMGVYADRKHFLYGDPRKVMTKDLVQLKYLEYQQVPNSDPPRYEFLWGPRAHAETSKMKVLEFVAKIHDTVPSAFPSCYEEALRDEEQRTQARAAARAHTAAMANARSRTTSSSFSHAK
Experimental: as §1

B1: 1C3 (antibody, V domains shown)
VH: QSLEESGGGLVQPEGSLTLTCTAFGVTLTNYYICWVRQAPGKGLEWVGCIDNANGRTYYASWAKGRFTISKTSSTTGTLQMTSLTAADTATYFCARSLATPLWGPGTLVTVSS
VL: DIVMTQTPSSVEAAVGGTVTIKCQASQNISSYLAWYQQKPGQPPKLLIYRASTLASGVPSRFKGSGSGTQFTLTISDLECADAATYYCQSYDDSRSSNFFYAFGGGTEVVVKG
notes: also called MAGE-B2 (IC3); anti-MAGEB2 antibody 1C3
For B1, the “IHC % Frequency” value [1] was 0%, the “IHC Intensity” value [1] was 0 and the binding result (human MAGEB18) was “no binding (tested: 0.1 µg/ml)”.

B2: 4G17 (antibody, IgG1, V domains shown)
VH: QSLEESGGGLVQPEGSLTLTCTASGVTLSNYYICWVRQAPGKGLEWIGCIDNVNGRTYYASWAKGRFTISKTSSTTGTLQMTSLTAADTATYFCARSLATPLWGPGTLVTVSS
VL: DIVMTQTPASVEAAVGGTVTIKCQASQNIDSYLAWYQQKPGQPPKLLIYRASTLASGVPSRFKGSGSGTEFTLTISDLECADAATYYCQSYDDSRSSSFFYGFGGGTEVVVK
notes: Rabbit monoclonal IgG1; Tested as supernatant and as small batch purified antibody; also called MAGE-B2 (4G17); anti-MAGEB2 antibody 4G17
For B2, the “IHC % Frequency” value [1] was 0%, the “IHC Intensity” value [1] was 0 and the binding result (human MAGEB18) was “no binding (tested: 0.1 µg/ml)”.

B3: 1J15 (antibody, IgG1, V domains shown)
VH: QSLEESGGGLVQPEGSLTLTCTAFGFTLNNYYICWVRQAPGKGLEWIACIDNANGRTYYASWAKGRFTISKTSSTTVTLQMTSLTAADTATYFCARSLSTPLWGPGTLVTVSS
VL: DIVMTQTPASVEAAVGGTVTIKCQASQSISSYLSWYQQKPGQPPKLLIYRASTLASGVPSRFRGSGSGTQFTLTISDLECADAATYYCQSYDDSSDNNFFYGFGGGTEVVVR
notes: Rabbit monoclonal IgG1; Tested as supernatant and as small batch purified antibody; also called MAGE-B2 (IJ15); anti-MAGEB2 antibody 1J15
B3 was tested, and the “IHC % Frequency” value [1] was 0%, the “IHC Intensity” value [1] was 0 and the binding result (human MAGEB18) was “no binding (tested: 0.1 µg/ml)”.

B4: 1I14 (antibody, V domains shown)
VH: QSVEESGGRLVTPGTPLTLTCTISGFSLSSYAMSWVRQAPGKGLEWIGSIGGGGSAVYASWAKGRFTISKTSTTVDLRITSPTTEDTAMYFCGRGFYSIDLWGPGTLVTVSS
VL: DVVMTQTPASVEATVGGTVTIKCQSSQSVYDNNALAWYQQNAGQRPRLLIYGASTLASGVPSRFSASGSGTEFTLTISDLECADAATYYCQCTYYVSSYQNDFGGGTEVVVKG
notes: also called MAGE-B2 (1i14)
B4 was tested, and the “IHC % Frequency” value [1] was 0%, the “IHC Intensity” value [1] was 0 and the binding result (human MAGEB18) was “no binding (tested: 0.1 µg/ml)”.
